Data reported in the DeepSol protein solubility set.

Assay: soluble on expression in E. coli; label from the status in PepcDB or PDB records

Sequence	soluble on expression in E. coli
MGSDKIHHHHHHMINFLPYSLDILRAADRDRYISVLFAPKKKRRALAALYAFNAEIARIRENVHNPLIGEIRLRWWYDSIAKSEMEKSESNPILSDLFMAMTLFNLPKTAFLRYCDAQILDLYHNPIATLYDLEFYCGETASIILQLSCQILDPDMAQNFTDAYQHAGIAQGLSGVLRLLSFMQSRYQYYLPADMLKALGIKREELESNRISKEQKCHVIEAMVALSRDHYNRFYEYFNMMPKTLKPAFLPLAIIPASLQKAIQLGAAVFQENAALPLLHRYWFITKAAISSNLPKIL	not soluble
MPAFFVKAGAKKSGGGAAATRKRKNGGKSDAKSEEMAAKMSRRQKIMAATEIHSDEEDSLAGSAAASEAGSDVEYEDAHERNYREAKKLLDKIQSTTTTQEEVAEKLRDDAVARTGTQVKRVADVVELEDDLEISYKPHRLSPLCVAFSPDAKYVISCGKESSIVKFNVGTRKVVGIIKRTKKRAGVPEEPTNAHYGVIFTVAVSPDQKFIASGGFDQVVKAPKNMKILFQIWNFDSLEHIKDLSGHRGPIFSLTFQLKTNNLYSASQDRSVKMWDIDQLGLVDTMYGHQDGVQQIGVLSKQRVATVGGRDRSARLWKVEDESQLMFSGLQNCVSLDCVAMINEEHFATGSADGSIALWSFWKKRALHVRKQAHGTQNGSGRWIVALAVLPYSDLLASGSNEGELKLWKISENFRQLTPFFSYSIPGFINSINFAPNGKSIVVGAGKEHKDGRWWVDREARNQVVILPIKYTDGSDNNDVTIGDKTASGTVSGASAGGGGGIESGDESEEEEEELEEELEEEEEEIEE	not soluble
AIAYRDRYPYYDGEVYDDTGVVFPENIERRPNGRRVIVEEPEDYGMPNDRGVEDEYDERNPFRGGHSMQPWNQSPFDHFDRLFETPFAGLDRGSFGGMFGNIEQSLRRLEEDFARGAGRGNAHVYSFSSKKHFGPEGEVYEESTTTTREGNRTEVRRHLKDSAAGNEEYAWKREIDGRGREVIRRRDGSGQEVTKENYYNLTPEERAQFEQQWRTLAREGLDWRGSEGNNASLPQLSDRSSWMEHDRNEHRGGLGGFFRKLFKHD	soluble
GPGSMAHSLTWKLLSPEQTHECLTAPDVPSIRSVLKKIDEACDGKLIGAAKYNEGKVMIVLDMLAHLILFCKSRSMSPEKVSTLVGIVIKIHEESMSGGYTRAKSYHLMRDLMIKHSVPRPPFSCGVFTVRDAQEIDEYMLRSYYRHYKMYFYAFVPRQVMNVRCLDVTHIHQVPPVGLPSLSTAVVESEWRTKVEEQRREAEEQAMQEGEIASDAYEEERMRNRLLADPHYSDGIREQLECIKKEVSSKAVGRLDEIEMRLQEIEKKVAESFARSDSKQGRRKK	soluble
MVADNSEKSTKSVANGSLISTVSSKDDLPNAIIVTQVPEDVFDNKQDKANFSSLFTQIEKDIHFDFLRSFRRVRVIFSSPENATAAKLIVQGFSFKGHELKAFFAQRIYMSANSQMLSPPPLEKQFLISPPCSPPVGWEQTKDMPPVVCNFDLMARLASFAIDEKYEVHNGDELTPAIIVHPCETPIDVPSAIEMPRTPRPSSPCEQ	not soluble
AHHHHHHGSNRKLDEFLGSNDPPATKEENQKVKKKQRLRATNLDEFLPEDHINFFKNLRIGSKKIARKKIEEL	not soluble
MKLALTLEADSVNVQALNMGRIVVDVDGVNLSELINKVSENGYSLRVVDKSDQHATSTPPPLTTLTCIRCSTAHITETDNAWLYSLSHQTNDDGETEWIHFTGSGYLLRTDAWSYPVLRLKRLGLSRTFRRLVVTLTRRYGVSLIHLDAGAECLPGFPTFDW	not soluble
MSTRWYPIYQRGNPQLRVFLPNFWMKLIRPTEEQPPNVVTFSVSMEMTKYDVRNYLEKIYKLPVVDVRTRIAMGETKKDQTYGYITKKDDVKLAYVTLPREESFVFPDFFSEKAEKQAKEEKSLDESKAGFRRFLDRNKKRPGTPGWFSI	not soluble
AGIKVFGHPASIATRRVLIALHEKNLDFELVHVELKDGEHKKEPFLSRNPFGQVPAFEDGDLKLFESRAITQYIAHRYENQGTNLLQTDSKNISQYAIMAIGMQVEDHQFDPVASKLAFEQIFKSIYGLTTDEAVVAEEEAKLAKVLDVYEARLKEFKYLAGETFTLTDLHHIPAIQYLLGTPTKKLFTERPRVNEWVAEITKRPASEKVQ	soluble
MFFRVKTTPTKAKPYVKPQNANNLQNNFNPRKIFTEYISKEETDAGIEDGSMFKGVLRINPKNYQECFLDHPKGTNHPDVLVLGQDRNRAMQGDVVAVKIKPKEDWLVNYVEYVKWWAEHKKGDRNSGKTDNNSPNKTEKRCLRNEIQDNGVTSDEVPDSCLITIGAIVHILEKKHFRVAAGKLQLMPNSANPNVLFVATDSRVPRILIPKSDVDKEFFSRPKDFERFLYTAKITDWRAESVYADGRLVKLLGMSGEIDTETERIVYEHQIDHREFSDECLESLPITTAENWKVPDAEFEYRRDFRSDIVFTIDPKTARDLDDALHAKHIDDCDGKGTPGLEIGVHIADVTFFLKEGTELDKWASERGNSTYLSQTVIPMLPRILCEQLCSLNPGVDRLSFSTVFKMSYEAELYDVWFGRSVIRSRVKLAYEHAQDFIENPEKDFTCDELPDISDGNTPFEIKEKTLMLHRIAQVLRQKREDSGALRIELPRLKFALDEDKKPQGVSIYEIKDSNKLVEEFMLLANMEVAKKIAENFPEHALLRNHPPPKEKMIKDVAEQCARIGFPLDGRTSGLLSTSLRKYQGKSRLDMCIRQVISSLTIKPMQQAKYFCTFEMPLSFYHHFALNVDHYTHFTSPIRRYPDVIVHRQLAAALGYNERSERVPEEIQEICTRCNDTKLASKEASDESAMLYFGVFIHQTGPMKCQAVVLGVMDLSFDVLIVEYGVVKRVYVDKMKRDFNKSTEKLTIYWPADPNAESGNREEFSSSIQMCNVVYVILVPYKSIEVSATIVRPSLEQRNILKSTLKDMKETGSTILQ	not soluble
IGEVSYGAKFVLSDDQQKILRYPNDSYDVGSYYKGEHLNDIWGLTTIGIAKSQEEMDAHLAKVDQSSVGTNWGVGDIMYADLDGDGKISNGTNKLGDTGDYRIIGNSTPRFKYGITLDAAWKGFDFSIFMQGIGKRDLWLDGCYFWGANGQGNEWQSTGFAEHWDFFRPEGDPLGANLNSYYPRVNFSGDRNTKVQTRYLQNGAYLRLKNVQLGYTLPRVWTEKAGISSVRVYVSGDNLATITSLSKIFDPEATGSLAGTGSGKLYPLQRVISVGVNVNF	not soluble
SLPHCETLLLEPIEGVLRITLNRPQSRNAMSLAMVGELRAVLAAVRDDRSVRALVLRGADGHFCAGGDIKDMAGARAAGAEAYRTLNRAFGSLLEEAQAAPQLLVALVEGAVLGGGFGLACVSDVAIAAADAQFGLPETSLGILPAQIAPFVVRRIGLTQARRLALTAARFDGREALRLGLVHFCEADADALEQRLEETLEQLRRCAPNANAATKALLLASESGELGALLDDAARQFAEAVGGAEGS	not soluble
MPPPSPLHLDPIEEAHRQWTKHGWGDVADGMAAVTSVMRAQQIMMARVEEVLKPSGLTFARYELLTLLTFTRTGALPMAKASARLQVHPTSVTNAVDRLETANLVRRVPHPSDRRATLIEITDAGRKLAVESTERLNAQVFSRPGVSGDKLEQLVTILAELRREAGDFDTGDAPTKW	not soluble
GKSLKVSSPRPGLLERLSATIQRNLPGHSMLDRQLTTDGKKNQESRFSFSMIKDRIVHFAVSTKLGSVRDSASKHGGEVTFKFAQTKGAFLDQIMKHQDTSGGVCESISAHWISAHAKGESVFNQLYVGGQKGQFHIDSLVSIKQLQMDGLDPYAEQSQITESWLRENGIQPRSPLEVSGETGSKGTKDLLNAILDTGDKGSGYKKISFEGQMAGHTVAAYVDDQKGVTFFDPNFGEFSFPDKTSFSNWFSQDFWSKSMYNKEIGLGQNFYVSNFEP	not soluble
LRVSDGIAGKMTVLALKNTDERLRADKSVSVGFVLAALMWPELERHWKSNLQQGLKPAPALSDAINTMRETVERGWGVPQRFSATMREIWMFQPQFENRKGARPHKLFAQARFRAAYDFLLLRAETGNADRALAEWWTAFQTASTEQRSEMTKNEAAARHEKNEGQAKKRRRRRRKPKPKVVGTDWE	not soluble
MKALTLKVFYENSDPNKSSSKQAKYLAIADALRKAIRERQIAPTEALPSARKLAQQLSVNRHTIMAALAELVAQGWVEVRERSGYRVVENLPIQGSRTINKVAKTPQSFDWKFRVKQTFAVTPKVKASEYPYNFSGGQPDIRKFPFDEFKSHFSQTCQRPKIDDLSYGDSRGEAELIEEIATYLRRVRSITDKELMICNGSQEALYMISQLLLQPGDKVAVEQLGYPPAWAAFERTGATLIAVKQDERGINPEHLAQVFAKGKVKLLYLTPLHQYPTTVSLDISRRMQIYQLAVQYGVAIVEDDYDHEFHYDSQPIAPMAADDPAGLVIYISTFSKLMFGGARIGYVVANNALIEQVAAYKMVMNHKCNVLVQQAVAKWMQQGGFEAHLRRMTRLYQKRRDFMVQQLRSFQDKGLPIHFEVPAGGMAIWLDTGKSIIGLKEKLLPQQVYLQTEVEFSRFNELPDDLPRTKYRFIRLGFAAMNEAEVTQGLDIVMNTLYGLVSE	not soluble
MGSDKIHHHHHHMNLGNPIAKGNTAEIYLYDNKIMKLFKDYLPNTESMNEAKKQKYAYSCGLPVPNVFEVTKIQNRQAIIMEYVKGDSIGDLLLNNLNEAEYYINICVNEQKKIHAIHVNTDEMEAMGERLERQIKSVHKLDEKQKESILNKLHSIKLDPRLCHGDFHPFNLILSEKNVSIIDWIDASSGDIRADLFRTYLLYSQSSVELAEKYLHIYCRNTGLSRDEIFQWAPIIIAARISENVTATNIEYLNDLVAQYCN	not soluble
MSKPSTPAPASADQNGDSATRQTAQTTETPASLLSAVGNGAPNMAGFTLNRDMVPFFPYQLQNPMLQPPQNSLENAIVHSLGTLAAQSSMFGQLCEKMLKAQEEARADQRSIREEHRAEREKADERSQQNMDKMMALVHSLVERVDRSHASSYDVVGQKNPSSSSLKPAKRVKSAVVRQSNLAKRTGAPVDAAKELKKIRDEENRNHGRSAERDNVFIGAVLVGKGSQYDKDLEKFKSFRCRTCNEVSQTKEQLVDHFSNNHAGELGARRSLRIKQTSC	not soluble
MGSDKIHHHHHHIDQWIRRQHHPTGNPTATQNKVFIATQNQPLLMDTGEKKSPPPPTPPNPPVNHAIAPVAQHPQPMPIPHQVPSPAHGAAHGHPQAPPMYPGIGFAPGMLQLPQNMQTTIVYTPSMAYDNGHPAAQVN	not soluble
MDTLQGMRVFARVVDSGSFTSAAQALDLSTAQVSRLISDLEAHLQTRLLHRTTRRLALTEAGERYLERCRGILEDIEVAEAEAAGAHIRPCGRLRVQSLMGMGQHHLVPMIARYGALFPDVVIELTLSQRNPDMLEEGQDVLITGERQLPDSEFVAQRLGSIHSVLCASPGYLQQHGVPRSVDDLERHVCLRLQDPAYPEGWIFADEQGERTVSPQNTFMVNVAEVMAQAAKADLGIALLPSYVAAAALRNGELLRVLPGHAMHQRTIYALYPSRRYLDAKIRTWVDLLQQELPQAFARDETTMQSSSYCAQ	not soluble
MAHHHHHHMFRSEAHFRMLANLRFLELQKLLLNRFQIFKNEEITVLKKGSMKTILYEWAEFLTKEQRATNMTHIPDEVLQSKRVADILRDDVECRWLVGRINVGAVSGVSGVSPPSPLSGAHLARDDAALSKVDQLHLDEYPDLFHYEYPQFPYDYYDKKKMSNFYSLMKFPYNDILNISKRIKREVSPPGGDAKEGEMRQMEEPRGGALESAGVDVVDDDFVSYSSNSYVYAPSEMETSKENYHE	not soluble
IGEFSYHVNGNFSIIKNKVISLGVGDVEQKSGMIGNGSDLFLGYPMNMFYGYKTDGVFLTDDEVKEWHDQSKIAPNSKAGDLRYVDISGDGKVDESDKTYLGSKIPQYTFGLGLGAEYKGFDFNILLQGVAKVKGQLTNYAGYAFFQEGNIQKWQAEETWTNNQSNRYPKYPRLEVMSNAGSNNTLGSDFWILDASYLKVRNIQLGYTLPKRITQKFGSSNLRFYISLDNPFSISGYRKGWDPEINTDGSYYPILSTYTFGLTLKF	not soluble
